Data: patent publication US20230190900 (published 2023)

Tests used:
murine FcRn = target: T1, murine FcRn (mouse, UniProt Q61559); test: SPR, pH 6.0
T1 chain 1: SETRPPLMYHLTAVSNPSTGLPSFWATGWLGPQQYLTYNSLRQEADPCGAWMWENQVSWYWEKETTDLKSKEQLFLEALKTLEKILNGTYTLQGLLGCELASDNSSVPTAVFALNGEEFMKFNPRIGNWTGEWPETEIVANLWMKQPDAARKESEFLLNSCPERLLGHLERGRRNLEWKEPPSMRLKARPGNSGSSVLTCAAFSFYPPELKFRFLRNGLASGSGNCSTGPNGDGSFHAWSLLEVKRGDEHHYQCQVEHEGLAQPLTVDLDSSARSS
T1 chain 2: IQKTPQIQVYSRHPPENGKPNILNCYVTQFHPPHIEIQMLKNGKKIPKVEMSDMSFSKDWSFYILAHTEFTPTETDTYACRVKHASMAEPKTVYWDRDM

murine FcγRIII = target: T2, murine FcγRIII (mouse, UniProt P08508); test: SPR
T2 chain: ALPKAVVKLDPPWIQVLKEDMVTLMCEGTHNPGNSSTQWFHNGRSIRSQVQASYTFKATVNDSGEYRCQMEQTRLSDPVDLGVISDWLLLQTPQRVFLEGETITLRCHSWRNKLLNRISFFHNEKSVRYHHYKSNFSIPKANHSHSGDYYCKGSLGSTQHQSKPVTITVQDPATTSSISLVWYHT

[1] = target: T3, human FcγRIIIb (NA1) CD16B (human, UniProt O75015); test: SPR
T3 chain: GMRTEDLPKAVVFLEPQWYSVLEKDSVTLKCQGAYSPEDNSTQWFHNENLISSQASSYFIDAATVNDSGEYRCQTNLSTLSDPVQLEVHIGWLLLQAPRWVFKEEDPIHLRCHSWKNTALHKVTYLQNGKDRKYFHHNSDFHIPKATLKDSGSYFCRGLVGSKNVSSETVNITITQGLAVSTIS

human FcγRIIb (CD32B) = target: T4, human FcγRIIb (CD32B) (human, UniProt P31994); test: SPR
T4 chain: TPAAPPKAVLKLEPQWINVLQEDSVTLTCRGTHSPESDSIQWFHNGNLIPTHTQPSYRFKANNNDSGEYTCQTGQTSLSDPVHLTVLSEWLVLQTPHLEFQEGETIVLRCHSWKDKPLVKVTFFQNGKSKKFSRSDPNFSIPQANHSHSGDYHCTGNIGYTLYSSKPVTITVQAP

murine FcγRIIb = target: T5, murine FcγRIIb (mouse, UniProt P08101); test: SPR
T5 chain: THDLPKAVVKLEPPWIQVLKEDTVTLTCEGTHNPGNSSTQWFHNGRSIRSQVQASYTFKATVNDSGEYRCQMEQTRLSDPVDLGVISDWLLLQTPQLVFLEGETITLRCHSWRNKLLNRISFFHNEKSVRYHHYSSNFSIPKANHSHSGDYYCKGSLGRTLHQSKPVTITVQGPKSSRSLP

murine FcγRI = target: T6, murine FcγRI (mouse, UniProt P26151); test: SPR
T6 chain: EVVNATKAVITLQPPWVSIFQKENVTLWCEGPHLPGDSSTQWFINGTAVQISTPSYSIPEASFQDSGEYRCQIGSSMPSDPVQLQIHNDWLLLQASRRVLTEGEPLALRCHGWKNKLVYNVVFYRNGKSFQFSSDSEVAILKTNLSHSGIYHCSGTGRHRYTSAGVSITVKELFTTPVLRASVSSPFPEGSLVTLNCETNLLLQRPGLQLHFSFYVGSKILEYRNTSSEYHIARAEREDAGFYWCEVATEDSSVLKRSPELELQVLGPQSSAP

[2] = target: T7, cynomolgus FcγRIIa (CD32A) (cynomolgus); test: SPR
T7 chain: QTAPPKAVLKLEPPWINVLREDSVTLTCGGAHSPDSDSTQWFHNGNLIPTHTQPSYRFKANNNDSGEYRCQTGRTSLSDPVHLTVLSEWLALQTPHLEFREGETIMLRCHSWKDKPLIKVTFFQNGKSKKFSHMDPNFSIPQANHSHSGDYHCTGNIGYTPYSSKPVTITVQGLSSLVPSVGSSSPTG

human FcγRIIc (CD32C) = target: T8, human FcγRIIc (CD32C) (human, UniProt P31995); test: SPR
T8 chain: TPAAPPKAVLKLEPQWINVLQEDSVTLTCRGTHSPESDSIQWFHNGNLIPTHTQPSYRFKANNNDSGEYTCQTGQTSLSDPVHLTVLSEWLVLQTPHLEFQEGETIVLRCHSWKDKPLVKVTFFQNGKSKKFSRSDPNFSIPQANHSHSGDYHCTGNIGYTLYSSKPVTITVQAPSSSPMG

human FcγRI (CD64) = target: T9, human FcγRI (CD64) (human, UniProt P12314); test: SPR
T9 chain: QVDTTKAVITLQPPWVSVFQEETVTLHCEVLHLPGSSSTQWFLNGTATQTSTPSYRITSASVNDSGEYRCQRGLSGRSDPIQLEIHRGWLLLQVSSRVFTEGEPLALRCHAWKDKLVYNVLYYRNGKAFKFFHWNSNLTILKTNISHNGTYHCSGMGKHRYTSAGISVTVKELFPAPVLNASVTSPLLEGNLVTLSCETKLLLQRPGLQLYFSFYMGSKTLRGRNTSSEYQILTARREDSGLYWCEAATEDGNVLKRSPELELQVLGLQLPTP

human FcRn = human FcRn (human, UniProt P55899); test: SPR, pH 6.0
cynomolgus FcRn = target: T10, cynomolgus FcRn (cynomolgus, UniProt Q8SPV9); test: SPR, pH 6.0
T10 chain 1: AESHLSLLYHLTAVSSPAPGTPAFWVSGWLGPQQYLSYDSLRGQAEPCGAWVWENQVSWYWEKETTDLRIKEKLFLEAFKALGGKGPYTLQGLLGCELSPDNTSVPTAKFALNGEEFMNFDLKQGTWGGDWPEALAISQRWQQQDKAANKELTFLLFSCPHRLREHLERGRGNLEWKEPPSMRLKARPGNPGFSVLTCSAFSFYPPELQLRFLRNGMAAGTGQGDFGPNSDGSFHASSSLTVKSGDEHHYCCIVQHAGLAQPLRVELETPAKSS
T10 chain 2: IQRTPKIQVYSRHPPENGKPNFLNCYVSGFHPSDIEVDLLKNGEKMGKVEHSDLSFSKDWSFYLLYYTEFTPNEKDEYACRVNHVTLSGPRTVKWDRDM

murine FcγRIV (CD16-2) = target: T11, murine FcγRIV (CD16-2) (mouse, UniProt A0A0B4J1G0); test: SPR
T11 chain: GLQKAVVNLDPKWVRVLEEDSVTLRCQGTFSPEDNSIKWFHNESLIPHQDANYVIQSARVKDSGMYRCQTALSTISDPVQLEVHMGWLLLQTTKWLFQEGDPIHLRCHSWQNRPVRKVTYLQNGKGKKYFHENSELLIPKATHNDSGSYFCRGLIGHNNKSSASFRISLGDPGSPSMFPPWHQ

human FcγRIIa (CD32A) = target: T12, human FcγRIIa (CD32A) (human, UniProt P12318); test: SPR
T12 chain: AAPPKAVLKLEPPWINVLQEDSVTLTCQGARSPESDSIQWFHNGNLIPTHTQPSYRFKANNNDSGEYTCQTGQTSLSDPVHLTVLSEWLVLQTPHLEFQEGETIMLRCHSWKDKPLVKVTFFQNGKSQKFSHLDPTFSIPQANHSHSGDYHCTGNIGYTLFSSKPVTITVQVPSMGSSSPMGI

Measured: binding result

B1: EGFR/CD16A tandem diabody (full) (antibody)
chain 1: QVQLQESGPGLVKPSETLSLTCTVSGGSVSSGSYYWSWIRQPPGKGLEWIGYIYYSGSTNYNPSLKSRVTISVDTSKNQFSLKLSSVTAADTAVYYCARNPISIPAFDIWGQGTMVTVSSGGSGGSGGSSYVLTQPSSVSVAPGQTATISCGGHNIGSKNVHWYQQRPGQSPVLVIYQDNKRPSGIPERFSGSNSGNTATLTISGTQAMDEADYYCQVWDNYSVLFGGGTKLTVLGGSGGSQVQLVQSGAEVKKPGESLKVSCKASGYTFTSYYMHWVRQAPGQGLEWMGIINPSGGSTSYAQKFQGRVTMTRDTSTSTVYMELSSLRSEDTAVYYCARGSAYYYDFADYWGQGTLVTVSSGGSGGSGGSQPVLTQPPSVSVAPGKTARITCGGNNIGSKSVHWYQQKPGQAPVLVIYYDSDRPSGIPERFSGSNSGNTATLTISRVEAGDEADYYCQVWDTSSDHVLFGGGTKLTVLAAAGSHHHHHH
chain 2: B1 chain 1
no binding: all assays above
